The target in this assay is CRISPR-Lon protease (Sulfurihydrogenibium sp. YO3AOP1). Put plainly: SEC-MALS. (SEC sorts molecules by how far they enter the pores of the column.)

Take CRISPR-T A171E (natural protein): the stoichiometry N (CRISPR-T variant per CRISPR-Lon) was found to be 1.

For CRISPR-T A181E (natural protein), the stoichiometry N (CRISPR-T variant per CRISPR-Lon) worked out at 1.

As for CRISPR-T A194E (natural protein), the stoichiometry N (CRISPR-T variant per CRISPR-Lon) came to 1. Take CRISPR-T protein (natural protein): the stoichiometry N (CRISPR-T per CRISPR-Lon) is 1.
